Results published in article PMC8386104 (RSC Chemical Biology, 2020).

What was measured:
MDM2 = MDM2 (UniProt Q00987 1-491); assay: fluorescence polarisation
MDMX = target: T1, MDMX (UniProt O15151 1-490); assay: fluorescence polarisation
T1 sequence: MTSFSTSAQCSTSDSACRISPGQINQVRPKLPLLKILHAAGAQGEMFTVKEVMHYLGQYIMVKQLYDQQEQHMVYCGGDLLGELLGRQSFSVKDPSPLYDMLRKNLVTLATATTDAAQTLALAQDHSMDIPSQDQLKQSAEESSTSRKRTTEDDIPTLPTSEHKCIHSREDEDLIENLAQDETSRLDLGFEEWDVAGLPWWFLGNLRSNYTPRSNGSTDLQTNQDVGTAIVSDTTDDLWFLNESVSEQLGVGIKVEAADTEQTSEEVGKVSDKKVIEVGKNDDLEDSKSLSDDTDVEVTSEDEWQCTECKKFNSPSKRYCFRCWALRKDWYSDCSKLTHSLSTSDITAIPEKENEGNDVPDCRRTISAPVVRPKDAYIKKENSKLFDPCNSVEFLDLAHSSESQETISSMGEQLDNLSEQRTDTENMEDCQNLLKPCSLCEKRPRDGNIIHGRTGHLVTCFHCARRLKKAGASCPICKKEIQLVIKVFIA

Chain of MDM2 (Q00987 whole entry): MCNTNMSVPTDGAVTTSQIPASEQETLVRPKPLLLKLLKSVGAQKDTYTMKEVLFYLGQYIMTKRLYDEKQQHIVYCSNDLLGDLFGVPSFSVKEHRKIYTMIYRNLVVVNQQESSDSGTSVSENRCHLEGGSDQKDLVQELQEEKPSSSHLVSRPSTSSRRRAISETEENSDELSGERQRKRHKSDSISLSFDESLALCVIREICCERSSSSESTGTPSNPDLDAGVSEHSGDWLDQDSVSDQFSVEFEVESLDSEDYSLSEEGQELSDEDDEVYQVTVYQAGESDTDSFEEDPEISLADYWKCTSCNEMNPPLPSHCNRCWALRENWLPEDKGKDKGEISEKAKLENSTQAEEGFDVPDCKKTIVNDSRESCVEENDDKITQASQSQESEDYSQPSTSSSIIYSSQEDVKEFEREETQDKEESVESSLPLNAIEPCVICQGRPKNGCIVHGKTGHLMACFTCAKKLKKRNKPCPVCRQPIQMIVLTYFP

## LTFEHYWALLT (designed binder, C-terminal amide) [PF4P_pDI]
MDM2
  IC50: < 1 nM
MDMX
  IC50: < 1 nM
